The supplement of paper PMC6757056
± gives the standard deviation of the averaged measurements.

B1: library; a variant is named by its letters at N, in order (parent)
chain: GCUGUCACCGGUGCUUGGUACGUUAUAUUCAGCCGGUCUGAUGAGUCUNNNNNNAGACGAAACAGC

Key:
(6R,S)-folinic acid [1] = variants of: B1; experiment: FACS-Seq fitted mean relative fluorescence mCherry/BFP without ligand (log10 relative fluorescence); HEK293T overexpressing SLC46A1; higher = higher reporter protein expression; conditions: without (6R,S)-folinic acid; ligand present: no
Procedure, shortened: (§1)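 Fluorescence values are fitted normal means of bin counts along the mCherry/BFP axis. HEK293T libraries lentivirally carrying the ribozyme switch in an mCherry reporter, with an EF1α-BFP marker, were enriched, exposed to ligand or not for 48 h, and sorted into 6 bins. Genomic DNA per bin was PCR-amplified, barcoded and run on MiSeq. Means of log10(mCherry/BFP) were scaled to five spiked-in control ribozymes.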

(6R,S)-folinic acid [2] = variants of: B1; experiment: normalized RNA/DNA level without ligand (relative to sTRSVctl = 100) (log10 (% of sTRSVctl)); HEK293T overexpressing SLC46A1; higher = less ribozyme self-cleavage, higher mRNA level; conditions: without (6R,S)-folinic acid; ligand present: no
Procedure, shortened: (§2)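 Ribozyme switch library plasmids with mCherry reporters (eGFP in certain ligand experiments) went into HEK293T cells at 4 µg per 6-well well. Where ligand was used, it was applied 1 h before transfection, and total RNA was extracted with EDTA 72 h later for reverse transcription, amplification, barcoding and sequencing. RNA level is the RNA-to-DNA read ratio normalized to a spiked-in non-cleaving sequence or to the leading sequences, then scaled and log-transformed. Scaling was ×100 with log10, the leading set comprised 25 sequences, and the cutoff was ≥100 DNA reads.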

(6R,S)-folinic acid [3] = variants of: B1; experiment: FACS-Seq fitted mean relative fluorescence mCherry/BFP with ligand (log10 relative fluorescence); HEK293T overexpressing SLC46A1; ligand concentration (+) FACS-Seq: 6 mM; higher = higher reporter protein expression; conditions: with (6R,S)-folinic acid; ligand present: yes
Procedure, shortened: as §1

(6R,S)-folinic acid [4] = variants of: B1; experiment: normalized RNA/DNA level with ligand (relative to sTRSVctl = 100) (log10 (% of sTRSVctl)); HEK293T overexpressing SLC46A1; ligand concentration (+) RNA-Seq: 6 mM; higher = less ribozyme self-cleavage, higher mRNA level; conditions: with (6R,S)-folinic acid; ligand present: yes
Procedure, shortened: as §2

Variant	FACS-Seq fitted mean (log10) ((6R,S)-folinic acid [1])	normalized RNA/DNA level without ligand (log10) ((6R,S)-folinic acid [2])	FACS-Seq fitted mean (log10) ((6R,S)-folinic acid [3])	normalized RNA/DNA level with ligand (log10) ((6R,S)-folinic acid [4])
GCUGUCACCGGUGCUUGGUACGUUAUAUUCAGCCGGUCUGAUGAGUCUUGGUGUAGACGAAACAGC [UGGUGU]	0.386 ± 0.1	1.933 ± 0.014	0.292 ± 0.034	2.01 ± 0.048
GCUGUCACCGGUGCUUGGUACGUUAUAUUCAGCCGGUCUGAUGAGUCUUGGUGAAGACGAAACAGC [UGGUGA]	0.399 ± 0.049	1.881 ± 0.0069	0.443 ± 0.061	2.014 ± 0.0098
GCUGUCACCGGUGCUUGGUACGUUAUAUUCAGCCGGUCUGAUGAGUCUUGGUGGAGACGAAACAGC [UGGUGG]	0.464 ± 0.054	1.736 ± 0.014	0.742 ± 0.064	1.96 ± 0.031
GCUGUCACCGGUGCUUGGUACGUUAUAUUCAGCCGGUCUGAUGAGUCUUGGUAGAGACGAAACAGC [UGGUAG]	0.0552 ± 0.19	1.5837 ± 9.7e-05	0.505 ± 0.61	1.935 ± 0.017
GCUGUCACCGGUGCUUGGUACGUUAUAUUCAGCCGGUCUGAUGAGUCUUGGUAUAGACGAAACAGC [UGGUAU]	0.259 ± 0.18	1.926 ± 0.0022	0.274 ± 0.046	1.99 ± 0.015
GCUGUCACCGGUGCUUGGUACGUUAUAUUCAGCCGGUCUGAUGAGUCUUGGUACAGACGAAACAGC [UGGUAC]	-0.0637 ± 0.16	1.994 ± 0.013	-0.0596 ± 0.18	1.99 ± 0.039
GCUGUCACCGGUGCUUGGUACGUUAUAUUCAGCCGGUCUGAUGAGUCUUGGUAAAGACGAAACAGC [UGGUAA]	0.244 ± 0.12	1.878 ± 0.01	0.0329 ± 0.18	1.95 ± 0.02
GCUGUCACCGGUGCUUGGUACGUUAUAUUCAGCCGGUCUGAUGAGUCUAGGUCCAGACGAAACAGC [AGGUCC]	0.442 ± 0.027	2.04 ± 0.0067	0.429 ± 0.22	2.03 ± 0.021
GCUGUCACCGGUGCUUGGUACGUUAUAUUCAGCCGGUCUGAUGAGUCUCGGUGUAGACGAAACAGC [CGGUGU]	0.22 ± 0.22	1.993 ± 0.015	0.278 ± 0.12	1.98 ± 0.046
GCUGUCACCGGUGCUUGGUACGUUAUAUUCAGCCGGUCUGAUGAGUCUGGGUCGAGACGAAACAGC [GGGUCG]	0.531 ± 0.011	2.082 ± 0.0039	0.432 ± 0.17	2.06 ± 0.05
GCUGUCACCGGUGCUUGGUACGUUAUAUUCAGCCGGUCUGAUGAGUCUCGGGUAAGACGAAACAGC [CGGGUA]	-0.402 ± 0.16	1.939 ± 0.018	-0.606 ± 0.59	1.97 ± 0.054
GCUGUCACCGGUGCUUGGUACGUUAUAUUCAGCCGGUCUGAUGAGUCUAGGUGAAGACGAAACAGC [AGGUGA]	0.616 ± 0.086	1.964 ± 0.0069	0.768 ± 0.25	2.03 ± 0.028
GCUGUCACCGGUGCUUGGUACGUUAUAUUCAGCCGGUCUGAUGAGUCUAGGUGGAGACGAAACAGC [AGGUGG]	0.777 ± 0.14	1.977 ± 0.0086	0.549 ± 0.26	2.05 ± 0.045
GCUGUCACCGGUGCUUGGUACGUUAUAUUCAGCCGGUCUGAUGAGUCUUGGGUGAGACGAAACAGC [UGGGUG]	-0.154 ± 0.034	1.687 ± 0.0083	0.261 ± 0.016	1.95 ± 0.057
GCUGUCACCGGUGCUUGGUACGUUAUAUUCAGCCGGUCUGAUGAGUCUGGGUGCAGACGAAACAGC [GGGUGC]	0.427 ± 0.079	1.969 ± 0.01	0.461 ± 0.023	2.011 ± 0.007
GCUGUCACCGGUGCUUGGUACGUUAUAUUCAGCCGGUCUGAUGAGUCUGGGUGAAGACGAAACAGC [GGGUGA]	0.435 ± 0.078	2.067 ± 0.0049	0.36 ± 0.31	2.07 ± 0.036
GCUGUCACCGGUGCUUGGUACGUUAUAUUCAGCCGGUCUGAUGAGUCUCGGUAAAGACGAAACAGC [CGGUAA]	0.149 ± 0.092	1.954 ± 0.014	0.184 ± 0.083	1.993 ± 0.013
GCUGUCACCGGUGCUUGGUACGUUAUAUUCAGCCGGUCUGAUGAGUCUGGGUAAAGACGAAACAGC [GGGUAA]	0.299 ± 0.036	1.997 ± 0.011	0.348 ± 0.28	2 ± 0.026
GCUGUCACCGGUGCUUGGUACGUUAUAUUCAGCCGGUCUGAUGAGUCUGGGUAGAGACGAAACAGC [GGGUAG]	0.0738 ± 0.081	1.979 ± 0.0061	0.00328 ± 0.082	2.013 ± 0.015
GCUGUCACCGGUGCUUGGUACGUUAUAUUCAGCCGGUCUGAUGAGUCUGGGUAUAGACGAAACAGC [GGGUAU]	0.149 ± 0.054	2.014 ± 0.015	0.284 ± 0.16	2.01 ± 0.033
GCUGUCACCGGUGCUUGGUACGUUAUAUUCAGCCGGUCUGAUGAGUCUGGGUACAGACGAAACAGC [GGGUAC]	0.536 ± 0.17	1.952 ± 0.0069	0.245 ± 0.036	1.99 ± 0.073
